According to PMC13208732:
Values belong to the substance of their own block, whether it stands above or below them.

Columns and labels:
[1] = target: human vascular endothelial growth factor A, isoform VEGFA165 (Homo sapiens); experiment: ELISA; competition with biotinylated VEGFR1, no heparin; conditions: Fc fusion
[2] = target: human vascular endothelial growth factor A, isoform VEGFA165 (human) (UniProt P15692); experiment: ELISA; competition with NRP1, no heparin
[3] = target: human vascular endothelial growth factor A, isoform VEGFA165 (human) (UniProt P15692); experiment: ELISA; competition with VEGFR1, no heparin
[4] = target: human vascular endothelial growth factor A, isoform VEGFA165 (Homo sapiens); experiment: ELISA; competition with biotinylated NRP1, no heparin; conditions: Fc fusion

human vascular endothelial growth factor A, isoform VEGFA165 (human), sequence (P15692 other isoform, or with tags, fused parts or gaps): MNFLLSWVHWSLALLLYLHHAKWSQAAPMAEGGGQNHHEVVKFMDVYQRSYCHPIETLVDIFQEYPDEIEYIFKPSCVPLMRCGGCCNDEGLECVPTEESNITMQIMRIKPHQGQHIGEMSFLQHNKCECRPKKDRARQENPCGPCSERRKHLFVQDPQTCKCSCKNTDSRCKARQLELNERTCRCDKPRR
human vascular endothelial growth factor A, isoform VEGFA165 (Homo sapiens), sequence (P15692 other isoform, or with tags, fused parts or gaps): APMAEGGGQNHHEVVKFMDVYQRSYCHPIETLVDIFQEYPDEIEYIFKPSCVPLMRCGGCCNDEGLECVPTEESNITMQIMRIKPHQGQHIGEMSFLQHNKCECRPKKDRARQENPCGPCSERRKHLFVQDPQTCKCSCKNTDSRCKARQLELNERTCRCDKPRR
VEGFR1 domains 1 to 6 fused to a C-terminal Fc, biotinylated, sequence (P17948 27-654): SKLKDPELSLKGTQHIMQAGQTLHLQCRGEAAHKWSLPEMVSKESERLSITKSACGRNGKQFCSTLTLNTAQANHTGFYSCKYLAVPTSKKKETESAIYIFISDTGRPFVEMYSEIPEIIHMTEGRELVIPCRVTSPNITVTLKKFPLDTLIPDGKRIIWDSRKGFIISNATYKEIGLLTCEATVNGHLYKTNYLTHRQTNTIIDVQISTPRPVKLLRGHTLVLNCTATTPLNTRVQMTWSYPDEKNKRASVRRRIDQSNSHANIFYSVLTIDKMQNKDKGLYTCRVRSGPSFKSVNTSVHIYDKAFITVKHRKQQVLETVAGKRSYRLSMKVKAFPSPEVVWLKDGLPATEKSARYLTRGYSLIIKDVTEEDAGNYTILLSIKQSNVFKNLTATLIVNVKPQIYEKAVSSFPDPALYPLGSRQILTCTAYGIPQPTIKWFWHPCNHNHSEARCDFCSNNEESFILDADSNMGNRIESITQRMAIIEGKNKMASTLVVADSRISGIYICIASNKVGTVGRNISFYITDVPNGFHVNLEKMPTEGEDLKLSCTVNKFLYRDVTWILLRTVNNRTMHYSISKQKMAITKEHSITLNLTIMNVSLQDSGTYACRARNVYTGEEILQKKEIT

IC50 [1]: 16.3 nM
Substance: VEGFR1 domains 1 to 6 fused to a C-terminal Fc, biotinylated (from UniProt P17948 27-654)

IC50 [2]: 1.9 nM
IC50 [3]: 58.2 nM
Substance: G6-31

Substance: NRP1 receptor domains α1α2β1β2 fused to a C-terminal Fc, biotinylated (from UniProt O14786 22-583)
IC50 [4]: 52.8 nM
